T1: His-tagged human AXL extracellular domain (recombinant) (human, UniProt P30530 26-451)
T1 construct: treated as one molecule; also called human AXL ECD; AXL-His ECD; not shown: His tag
T1 sequence: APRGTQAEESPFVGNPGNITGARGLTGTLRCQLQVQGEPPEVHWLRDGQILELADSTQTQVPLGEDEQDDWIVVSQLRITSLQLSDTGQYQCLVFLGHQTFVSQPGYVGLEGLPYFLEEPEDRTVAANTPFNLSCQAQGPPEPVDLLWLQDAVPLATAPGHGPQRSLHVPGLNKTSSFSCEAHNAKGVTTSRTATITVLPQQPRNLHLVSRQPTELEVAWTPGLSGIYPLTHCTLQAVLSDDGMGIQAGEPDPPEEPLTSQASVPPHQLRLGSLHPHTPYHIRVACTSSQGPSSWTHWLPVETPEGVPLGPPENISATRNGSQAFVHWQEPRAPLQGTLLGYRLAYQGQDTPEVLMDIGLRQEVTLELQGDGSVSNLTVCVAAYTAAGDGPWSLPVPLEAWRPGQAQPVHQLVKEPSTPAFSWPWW

T2: human AXL extracellular domain transiently expressed on CHO-S cells (human, UniProt P30530 26-451)
T2 construct: also called human AXL ECD on CHO-S cells
T2 sequence: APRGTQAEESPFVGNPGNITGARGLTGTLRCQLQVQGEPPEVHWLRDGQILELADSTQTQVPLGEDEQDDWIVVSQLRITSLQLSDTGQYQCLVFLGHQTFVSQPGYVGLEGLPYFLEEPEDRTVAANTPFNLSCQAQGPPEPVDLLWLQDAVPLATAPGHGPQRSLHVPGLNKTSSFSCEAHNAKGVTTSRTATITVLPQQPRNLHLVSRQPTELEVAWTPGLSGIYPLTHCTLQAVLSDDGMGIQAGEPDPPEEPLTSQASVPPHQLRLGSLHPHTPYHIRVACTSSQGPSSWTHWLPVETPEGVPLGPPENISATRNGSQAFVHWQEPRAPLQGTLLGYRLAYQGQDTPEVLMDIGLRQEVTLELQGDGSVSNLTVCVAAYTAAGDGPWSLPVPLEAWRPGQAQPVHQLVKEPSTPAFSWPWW

B1: 22883 (antibody, human IgG1, kappa, L234A L235A, V domains shown)
VH: EVQLVESGGGLVQPGGSLRLSCAASGFTFSSYAMSWVRQAPGKGLEWVSAISGGGDYTYYADSVKGRFTISRDNSKNTLYLQMNSLRAEDTAVYYCAKEEWELRGPFRYWGQGTLVTVSS
VL: DIQMTQSPSTLSASVGDRVTITCRASQSISSWLAWYQQKPGKAPKFLIYKASSLESGVPSRFSGSGSGTEFTLTISSLQPDDFATYYCQQYNGFSWTFGQGTKVEIKR
notes: Fully human IgG1-LALA, kappa
B2: 22995 (antibody, human IgG1, kappa, L234A L235A, V domains shown)
VH: EVQLVESGGSLVQPGGSLRLSCAASGFTFSSSAMSWVRQAPGKGLEWVSTISGSDSSTYDADSVKGRSTISRDNSKNTLYLQMNSLRADDTAVYYCAKKGAYCSGTICYDPFDYWGQGTLVTVSS
VL: DIVLTQSPVLAVSLGQRATISCRASQSVSISSINLMHWYQQKPGQQPKLLIYRASNLASGIPARFSGSGSGTDFTLTIDPVQADDIAAYYCQQSRESPLTFGGGTKVEIKR
notes: Fully human IgG1-LALA, kappa
B3: 23203_3 (antibody, human IgG1, kappa, L234A L235A, V domains shown)
VH: QVQLQQWGAGLLKPSETLSLTCTVSGGSFSGYYWTWIRQPPGKGLEWIGEINHAGSTNYNPSLKSRVTISVDTSKNQFSLKLSSVTAADTAVYYCSSREYSSRWHFDYWGQGTLVTVSS
VL: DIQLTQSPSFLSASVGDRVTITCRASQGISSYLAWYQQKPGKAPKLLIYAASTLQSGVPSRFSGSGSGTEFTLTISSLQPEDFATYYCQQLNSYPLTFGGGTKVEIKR
notes: Fully human IgG1-LALA, kappa
B4: 23203_1 (antibody, human IgG1, kappa, L234A L235A, V domains shown)
VH: QVQLQESGPGLVKPSETLSLTCTVSGGSFSGYYWSWIRQPPGKGLEWIGEINHAGSTNYNPSLKSRVTISVDTSKNQFSLKLSSVTAADTAVYYCSSREYSSRWHFDYWGQGTLVTVSS
VL: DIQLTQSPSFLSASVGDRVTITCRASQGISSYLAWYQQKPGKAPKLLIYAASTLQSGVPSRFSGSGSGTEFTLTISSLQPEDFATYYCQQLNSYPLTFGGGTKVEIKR
notes: Fully human IgG1-LALA, kappa
B5: 23203_2 (antibody, human IgG1, kappa, L234A L235A, V domains shown)
VH: QVQLQQWGAGLLKPSETLSLTCAVYGGSFSGYYWTWIRQPPGKGLEWIGEINHSGSTNYNPSLKSRVTISVDTSKNQFSLKLSSVTAADTAVYYCSSREYSSRWHFDYWGQGTLVTVSS
VL: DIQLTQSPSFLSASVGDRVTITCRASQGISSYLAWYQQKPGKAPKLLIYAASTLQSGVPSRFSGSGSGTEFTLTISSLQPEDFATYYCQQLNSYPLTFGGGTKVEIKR
notes: Fully human IgG1-LALA, kappa
B6: 23203_4 (antibody, human IgG1, kappa, L234A L235A, V domains shown)
VH: QVQLQQWGAGLLKPSETLSLTCAVYGGSFSGYYWTWIRQPPGKGLEWIGEINHAGSTNYNPSLKSRVTISVDTSKNQFSLKLSSVTAADTAVYYCSSREYSSRWHFDYWGQGTLVTVSS
VL: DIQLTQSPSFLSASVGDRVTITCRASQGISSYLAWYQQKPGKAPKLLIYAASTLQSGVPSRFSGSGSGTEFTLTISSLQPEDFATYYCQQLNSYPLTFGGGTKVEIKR
notes: Fully human IgG1-LALA, kappa

What was measured:
[1] = molecular target: T1, His-tagged human AXL extracellular …; assay: SPR (IBIS MX96), antibody captured, monovalent His-tagged AXL ECD in solution, 1:1 fit
Description: (§1) The kinetic binding analysis was performed by surface plasmon resonance (SPR), using a Continuous Flow Microspotter (CFM, Wasatch Microfluidics, Salt Lake City, US) combined with an IBIS MX96 SPR instrument (IBIS Technologies, The Netherlands).
(§2) His-tagged human and cynomolgus AXL ECD were expressed in Expi293F cells and purified by Ni-NTA chromatography. Binding kinetics were measured under monovalent antigen conditions by immobilizing anti-AXL antibodies and keeping the monovalent AXL antigen in solution. Antibodies were captured onto a G-a-hu-IgG Fc SensEye® (Ssens BV, The Netherlands) for 15 minutes using a Continuous Flow Microspotter (CFM, Wasatch Microfluidics, Salt Lake City, US). After spotting, the SensEye® was positioned in the IBIS MX96 biosensor and captured proteins were fixed to the surface using FixIT kit (Ssens BV, The Netherlands). Kinetic analysis was performed by applying kinetic titration series (Karlsson et al., Anal Biochem. 349(1):136-47 (2006)), with antigen injections at increasing concentrations from 0.14 nM to 100 nM. Antigen association and dissociation was performed for 15 minutes. After each antigen injection series, the surface was regenerated by 100 mM H₃PO₄, pH 3 regeneration buffer. The recorded binding responses were fitted to a simple Langmuir 1:1 binding model with Scrubber 2 software for calculation of the on-rate (kₒₙ or ka), off-rate (koff or kd) and affinity (KD) constants.

[2] = molecular target: T3, His-tagged cynomolgus AXL extracellular domain (recombinant) (cynomolgus); assay: as above
T3 construct: extracellular domain; Expressed in Expi293F cells, purified by Ni-NTA; also called cynomolgus AXL ECD
Description: as §1, §2

[3] = molecular target: T2, human AXL extracellular domain …; assay: flow cytometry, serial dilution on CHO-S cells transiently expressing human AXL ECD, AF647 anti-human IgG secondary, GeoMean (RL1-H)
Description: (§3) Six anti-human AXL antibodies and reference antibody analogues were evaluated by flow cytometry for in vitro binding to human or cynomolgus AXL extracellular domain transiently expressed on CHO-S cells. For comparison, reference antibody analogues were included in the evaluation. All antibodies were incubated in serial dilutions together with the transiently transfected CHO-S cells for 30 min at 4° C. Following two washing steps, the cells were incubated with AF647-conjugated secondary anti-human IgG (H+L) antibody for 30 min at 4° C. A final washing step was done prior to acquisition of the cells on an iQue Plus screener. Results were calculated by GrafPad Prism software.

[4] = molecular target: T4, cynomolgus AXL extracellular domain transiently expressed on CHO-S cells (cynomolgus); assay: flow cytometry, serial dilution on CHO-S cells transiently expressing cynomolgus AXL ECD, AF647 anti-human IgG secondary, GeoMean (RL1-H)
T4 construct: extracellular domain; also called cynomolgus AXL ECD on CHO-S cells
Description: as §3

Row | Binder | Kd [1] | koff [1] | kon [1] | Kd [2] | koff [2] | kon [2] | EC50 (read off the curve) [3] | EC50 (read off the curve) [4]
1 | B1 | 9.6 nM | 0.00031 s⁻¹ | 32000 M⁻¹ s⁻¹ | 7.2 nM | 0.0002 s⁻¹ | 28000 M⁻¹ s⁻¹ | ~0.07 µg/mL | ~0.05 µg/mL
2 | B2 | 0.69 nM | 0.00057 s⁻¹ | 820000 M⁻¹ s⁻¹ | 80 nM | 0.0011 s⁻¹ | 14000 M⁻¹ s⁻¹ | ~0.007 µg/mL | ~0.4 µg/mL
3 | B3 | 15 nM | 0.0016 s⁻¹ | 110000 M⁻¹ s⁻¹ | 13 nM | 0.0018 s⁻¹ | 140000 M⁻¹ s⁻¹ | ~0.02 µg/mL | ~0.02 µg/mL
4 | B4 | 15 nM | 0.0021 s⁻¹ | 140000 M⁻¹ s⁻¹ | 13 nM | 0.0024 s⁻¹ | 180000 M⁻¹ s⁻¹ | ~0.02 µg/mL | ~0.02 µg/mL
5 | B5 | 11 nM | 0.0016 s⁻¹ | 140000 M⁻¹ s⁻¹ | 15 nM | 0.0016 s⁻¹ | 110000 M⁻¹ s⁻¹ | ~0.02 µg/mL | ~0.02 µg/mL
6 | B6 | 25 nM | 0.0023 s⁻¹ | 90000 M⁻¹ s⁻¹ | 15 nM | 0.0021 s⁻¹ | 150000 M⁻¹ s⁻¹ | ~0.02 µg/mL | ~0.02 µg/mL

Source: patent publication US20210269532A1 (SYMPHOGEN A S, published 2021)
